T1: HTRA3, P83110
T1 sequence (P83110 354-453, limits assumed, looked up): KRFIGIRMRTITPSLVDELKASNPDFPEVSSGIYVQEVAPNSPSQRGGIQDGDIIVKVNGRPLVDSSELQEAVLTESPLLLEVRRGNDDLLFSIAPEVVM

T2: APBA3_1, O96018
T2 sequence (O96018 389-490, limits assumed, looked up): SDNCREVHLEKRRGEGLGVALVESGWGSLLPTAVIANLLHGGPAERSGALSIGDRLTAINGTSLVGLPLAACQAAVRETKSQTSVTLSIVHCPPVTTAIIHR

T3: LIN7C, Q9NUP9
T3 sequence (Q9NUP9 88-185, limits assumed, looked up): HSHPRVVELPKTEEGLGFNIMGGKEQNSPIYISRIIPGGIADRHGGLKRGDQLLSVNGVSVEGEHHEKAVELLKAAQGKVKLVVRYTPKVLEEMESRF

T4: PDZD7_3, Q9H5P4
T4 sequence (Q9H5P4 857-944, limits assumed, looked up): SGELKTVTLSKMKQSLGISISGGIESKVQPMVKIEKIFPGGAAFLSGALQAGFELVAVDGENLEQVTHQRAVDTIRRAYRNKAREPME

T5: TX1BP3, O14907
T5 sequence (O14907 10-122, limits assumed, looked up): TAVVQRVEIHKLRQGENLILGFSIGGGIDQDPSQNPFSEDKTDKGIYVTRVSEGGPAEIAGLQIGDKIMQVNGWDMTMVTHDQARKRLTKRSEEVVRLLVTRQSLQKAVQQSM

T6: PTPN13_1, Q12923
T6 sequence (Q12923 1088-1188, limits assumed, looked up): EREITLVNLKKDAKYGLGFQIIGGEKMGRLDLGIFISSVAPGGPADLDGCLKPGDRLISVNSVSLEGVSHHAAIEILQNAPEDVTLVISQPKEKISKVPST

T7: SNTA1, Q13424
T7 sequence (Q13424 82-180, limits assumed, looked up): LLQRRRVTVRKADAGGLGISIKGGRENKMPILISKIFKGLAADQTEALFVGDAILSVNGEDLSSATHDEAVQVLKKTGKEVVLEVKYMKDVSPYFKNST

T8: RHPN1, Q8TCX5
T8 sequence (Q8TCX5 508-602, limits assumed, looked up): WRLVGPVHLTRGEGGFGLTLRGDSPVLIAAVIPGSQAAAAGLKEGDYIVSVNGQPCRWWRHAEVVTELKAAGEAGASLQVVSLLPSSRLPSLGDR

T9: FRMPD1, Q5SYB0
T9 sequence (Q5SYB0 52-145, limits assumed, looked up): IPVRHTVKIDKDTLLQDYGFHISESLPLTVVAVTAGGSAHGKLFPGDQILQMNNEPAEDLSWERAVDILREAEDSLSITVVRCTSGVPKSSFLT

T10: SNTG2, Q9NY99
T10 sequence (Q9NY99 68-166, limits assumed, looked up): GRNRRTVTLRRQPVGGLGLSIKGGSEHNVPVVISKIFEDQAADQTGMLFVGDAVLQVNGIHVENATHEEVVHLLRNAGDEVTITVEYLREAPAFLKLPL

T11: DVL3, Q92997
T11 sequence (Q92997 244-331, limits assumed, looked up): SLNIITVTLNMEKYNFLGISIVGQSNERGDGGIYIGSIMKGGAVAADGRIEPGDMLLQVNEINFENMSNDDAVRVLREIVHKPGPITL

T12: TJP3_3, O95049
T12 sequence (O95049 375-456, limits assumed, looked up): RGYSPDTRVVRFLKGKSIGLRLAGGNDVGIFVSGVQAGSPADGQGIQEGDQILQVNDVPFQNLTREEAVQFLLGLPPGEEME

B1: RPS6KA1_-3P, Q15418 (peptide)
chain: RRVRKLPSTTL

Molecular target: T1, HTRA3, P83110
Assay: holdup assay
Parameters: key: below the threshold = too weak to quantify, mostly under pKd 3.1 to 4
Conditions: modified: phospho on S at position -3 from the C-terminal residue

pKd	Binder
below the threshold	B1

Molecular target: FRMPD3, Q5JV73
Sequence (Q5JV73 12-100): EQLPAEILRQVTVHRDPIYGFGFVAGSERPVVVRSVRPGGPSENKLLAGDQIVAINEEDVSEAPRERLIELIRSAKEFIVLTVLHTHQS
Assay: holdup assay
Parameters: key: below the threshold = too weak to quantify, mostly under pKd 3.1 to 4
Conditions: modified: phospho on S at position -3 from the C-terminal residue

pKd	Binder
below the threshold	B1

Molecular target: T2, APBA3_1, O96018
Assay: holdup assay
Parameters: key: below the threshold = too weak to quantify, mostly under pKd 3.1 to 4
Conditions: modified: phospho on S at position -3 from the C-terminal residue

pKd	Binder
below the threshold	B1

Molecular target: ARHGEF12, Q9NZN5-2
Sequence (Q9NZN5 other isoform, or with tags, fused parts or gaps): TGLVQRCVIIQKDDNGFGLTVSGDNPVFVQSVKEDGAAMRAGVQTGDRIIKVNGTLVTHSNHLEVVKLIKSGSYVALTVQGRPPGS
Assay: holdup assay
Parameters: key: below the threshold = too weak to quantify, mostly under pKd 3.1 to 4
Conditions: modified: phospho on S at position -3 from the C-terminal residue

pKd	Binder
3.79	B1

Molecular target: GRIP2_3, Q9C0E4
Sequence (Q9C0E4 238-339): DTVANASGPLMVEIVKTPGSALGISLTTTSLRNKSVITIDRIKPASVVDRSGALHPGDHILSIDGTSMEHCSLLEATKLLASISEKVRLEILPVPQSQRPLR
Assay: holdup assay
Parameters: key: below the threshold = too weak to quantify, mostly under pKd 3.1 to 4
Conditions: modified: phospho on S at position -3 from the C-terminal residue

pKd	Binder
below the threshold	B1

Molecular target: MAGI2_4, Q86UL8
Sequence (Q86UL8 772-865): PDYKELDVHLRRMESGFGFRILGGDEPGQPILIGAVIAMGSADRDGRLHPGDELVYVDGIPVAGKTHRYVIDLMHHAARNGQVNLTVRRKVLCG
Assay: holdup assay
Parameters: key: below the threshold = too weak to quantify, mostly under pKd 3.1 to 4
Conditions: modified: phospho on S at position -3 from the C-terminal residue

pKd	Binder
below the threshold	B1

Molecular target: DLG2_3, Q15700
Assay: holdup assay
Parameters: key: below the threshold = too weak to quantify, mostly under pKd 3.1 to 4
Conditions: modified: phospho on S at position -3 from the C-terminal residue

pKd	Binder
below the threshold	B1

Molecular target: T3, LIN7C, Q9NUP9
Assay: holdup assay
Parameters: key: below the threshold = too weak to quantify, mostly under pKd 3.1 to 4
Conditions: modified: phospho on S at position -3 from the C-terminal residue

pKd	Binder
below the threshold	B1

Molecular target: T4, PDZD7_3, Q9H5P4
Assay: holdup assay
Parameters: key: below the threshold = too weak to quantify, mostly under pKd 3.1 to 4
Conditions: modified: phospho on S at position -3 from the C-terminal residue

pKd	Binder
3.72	B1

Molecular target: FRMPD2_2, Q68DX3
Sequence (Q68DX3 944-1038): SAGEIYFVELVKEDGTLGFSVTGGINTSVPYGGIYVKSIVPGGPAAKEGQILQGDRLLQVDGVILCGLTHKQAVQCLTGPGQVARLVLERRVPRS
Assay: holdup assay
Parameters: key: below the threshold = too weak to quantify, mostly under pKd 3.1 to 4
Conditions: modified: phospho on S at position -3 from the C-terminal residue

pKd	Binder
below the threshold	B1

Molecular target: PTPN3, P26045
Sequence (P26045 505-587): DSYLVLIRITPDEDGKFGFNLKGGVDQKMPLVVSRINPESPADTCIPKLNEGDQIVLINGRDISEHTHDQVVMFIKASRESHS
Assay: holdup assay
Parameters: key: below the threshold = too weak to quantify, mostly under pKd 3.1 to 4
Conditions: modified: phospho on S at position -3 from the C-terminal residue

pKd	Binder
4.51	B1

Molecular target: T5, TX1BP3, O14907
Assay: holdup assay
Parameters: key: below the threshold = too weak to quantify, mostly under pKd 3.1 to 4
Conditions: modified: phospho on S at position -3 from the C-terminal residue

pKd	Binder
below the threshold	B1

Molecular target: FRMPD2_1, Q68DX3
Sequence (Q68DX3 770-861): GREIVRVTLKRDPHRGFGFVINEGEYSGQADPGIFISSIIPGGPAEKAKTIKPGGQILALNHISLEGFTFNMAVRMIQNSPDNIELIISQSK
Assay: holdup assay
Parameters: key: below the threshold = too weak to quantify, mostly under pKd 3.1 to 4
Conditions: modified: phospho on S at position -3 from the C-terminal residue

pKd	Binder
below the threshold	B1

Molecular target: T6, PTPN13_1, Q12923
Assay: holdup assay
Parameters: key: below the threshold = too weak to quantify, mostly under pKd 3.1 to 4
Conditions: modified: phospho on S at position -3 from the C-terminal residue

pKd	Binder
below the threshold	B1

Molecular target: GORASP1, Q9BQQ3
Sequence (Q9BQQ3 1-208): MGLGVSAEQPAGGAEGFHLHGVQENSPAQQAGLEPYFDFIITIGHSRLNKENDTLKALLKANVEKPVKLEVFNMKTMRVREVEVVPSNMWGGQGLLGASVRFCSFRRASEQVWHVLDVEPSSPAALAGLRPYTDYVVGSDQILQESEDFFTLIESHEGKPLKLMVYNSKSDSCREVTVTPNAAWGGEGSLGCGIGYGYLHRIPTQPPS
Assay: holdup assay
Parameters: key: below the threshold = too weak to quantify, mostly under pKd 3.1 to 4
Conditions: modified: phospho on S at position -3 from the C-terminal residue

pKd	Binder
below the threshold	B1

Molecular target: T7, SNTA1, Q13424
Assay: holdup assay
Parameters: key: below the threshold = too weak to quantify, mostly under pKd 3.1 to 4
Conditions: modified: phospho on S at position -3 from the C-terminal residue

pKd	Binder
4.4	B1

Molecular target: PDZRN4_1, Q6ZMN7
Sequence (Q6ZMN7 213-318): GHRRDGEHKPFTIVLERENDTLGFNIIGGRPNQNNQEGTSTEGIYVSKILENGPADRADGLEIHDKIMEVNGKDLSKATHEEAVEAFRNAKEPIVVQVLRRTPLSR
Assay: holdup assay
Parameters: key: below the threshold = too weak to quantify, mostly under pKd 3.1 to 4
Conditions: modified: phospho on S at position -3 from the C-terminal residue

pKd	Binder
3.98	B1

Molecular target: MAST1, Q9Y2H9
Sequence (Q9Y2H9 962-1065): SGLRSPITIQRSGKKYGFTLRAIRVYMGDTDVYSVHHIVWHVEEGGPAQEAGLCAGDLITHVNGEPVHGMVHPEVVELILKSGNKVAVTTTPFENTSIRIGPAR
Assay: holdup assay
Parameters: key: below the threshold = too weak to quantify, mostly under pKd 3.1 to 4
Conditions: modified: phospho on S at position -3 from the C-terminal residue

pKd	Binder
below the threshold	B1

Molecular target: T8, RHPN1, Q8TCX5
Assay: holdup assay
Parameters: key: below the threshold = too weak to quantify, mostly under pKd 3.1 to 4
Conditions: modified: phospho on S at position -3 from the C-terminal residue

pKd	Binder
4.34	B1

Molecular target: T9, FRMPD1, Q5SYB0
Assay: holdup assay
Parameters: key: below the threshold = too weak to quantify, mostly under pKd 3.1 to 4
Conditions: modified: phospho on S at position -3 from the C-terminal residue

pKd	Binder
below the threshold	B1

Molecular target: T10, SNTG2, Q9NY99
Assay: holdup assay
Parameters: key: below the threshold = too weak to quantify, mostly under pKd 3.1 to 4
Conditions: modified: phospho on S at position -3 from the C-terminal residue

pKd	Binder
4.76	B1

Molecular target: T11, DVL3, Q92997
Assay: holdup assay
Parameters: key: below the threshold = too weak to quantify, mostly under pKd 3.1 to 4
Conditions: modified: phospho on S at position -3 from the C-terminal residue

pKd	Binder
below the threshold	B1

Molecular target: Inadl_4, Q8NI35
Sequence (Q8NI35 547-651): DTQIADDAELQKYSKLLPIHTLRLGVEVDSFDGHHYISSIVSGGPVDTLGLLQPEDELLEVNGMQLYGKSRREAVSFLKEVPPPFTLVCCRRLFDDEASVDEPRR
Assay: holdup assay
Parameters: key: below the threshold = too weak to quantify, mostly under pKd 3.1 to 4
Conditions: modified: phospho on S at position -3 from the C-terminal residue

pKd	Binder
below the threshold	B1

Molecular target: T12, TJP3_3, O95049
Assay: holdup assay
Parameters: key: below the threshold = too weak to quantify, mostly under pKd 3.1 to 4
Conditions: modified: phospho on S at position -3 from the C-terminal residue

pKd	Binder
below the threshold	B1

Molecular target: Inadl_5, Q8NI35
Sequence (Q8NI35 673-780): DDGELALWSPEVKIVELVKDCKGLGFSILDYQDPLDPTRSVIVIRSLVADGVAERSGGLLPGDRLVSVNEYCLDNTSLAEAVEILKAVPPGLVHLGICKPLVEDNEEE
Assay: holdup assay
Parameters: key: below the threshold = too weak to quantify, mostly under pKd 3.1 to 4
Conditions: modified: phospho on S at position -3 from the C-terminal residue

pKd	Binder
below the threshold	B1

From publication PMC9482650, “Quantitative fragmentomics allow affinity mapping of interactomes” (Nature Communications, 2022)
